Assay results from patent US8030043B2, “β-galactoside-α2,3-sialyltransferase, a gene encoding thereof, and a method for producing thereof” (Japan Tobacco Inc., priority 2005, dated 2011).

B1: ISH224-N1C0 first clone: JT-ISH-224 sialyltransferase lacking signal peptide region, nucleotides 73 to 1230 of SEQ ID NO: 28 (protein, listed as Photobacterium sp.)
chain: MLVFCKKMFFSVFISLMILGGCNSDSNHNNSDGNITKNKTIEVYVDRATLPTIQQMTQIINENSNNKKLISWSRYPINDEELLESINGSFFKNNSELIKSLDSMILTNDIKKVIINGNTLWAADVVNIIKSIEAFGKKTEIELNFYDDGSAEYVRLYDFSKLPESEQEYKISLSKDNILSSINGTQPFENVVENIYGFSQLYPTTYHMLRADIFETNLPLRSLKGVLSNNIKQMKWDYFKTFNSQQKDKFYNFTGFNPDEIMEQYKASPNKNFIFVGTNSGTATAEQQIDILTEAKNPNSPIITKSIQGFDLFFKGHPSATYNKQIIDAHNMIEIYNKIPFEALIMTDALPDAVGGMGSSVFFSLPNTVENKFIFYKSDTDIENNALIQVMIELNIVNRNDVKLISDLQ
modifications: CDS (1)..(1230) /gene=“224-23ST” /product=“Beta-galactoside-alpha-2,3-sialyltransferase”
B2: ISH467-N2C0 third clone: JT-ISH-467 sialyltransferase lacking signal peptide region, nucleotides 73 to 1230 of SEQ ID NO: 1, no mutation (protein, listed as Photobacterium phosphoreum)
chain: MFVFCKKIFFLIFISLMILGGCNSDSKHNNSDGNITKNKTIEVYVDRATLPTIQQMTQIINENSNNKKLISWSRYPINDETLLESINGSFFKNRPELIKSLDSMILTNEIKKVIINGNTLWAVDVVNIIKSIEALGKKTEIELNFYDDGSAEYVRLYDFSRLPESEQEYKISLSKDNIQSSINGTQPFDNSIENIYGFSQLYPTTYHMLRADIFETNLPLTSLKRVISNNIKQMKWDYFTTFNSQQKNKFYNFTGFNPEKIKEQYKASPHENFIFIGTNSGTATAEQQIDILTEAKKPDSPIITNSIQGLDLFFKGHPSATYNQQIIDAHNMIEIYNKIPFEALIMTDALPDAVGGMGSSVFFSLPNTVENKFIFYKSDTDIENNALIQVMIELNIVNRNDVKLISDLQ
modifications: CDS (1)..(1230) /gene=“467-23ST” /product=“Beta-galactoside- alpha 2,3-sialyltransferase”
B3: FAJ-N1C0 first clone: JT-FAJ-16 sialyltransferase lacking signal peptide region, nucleotides 67 to 1209 of SEQ ID NO: 30 (protein, listed as Vibrio sp.)
chain: MKNIITKRMLIILSSLFTIIGCNNDNSTTTNNNAIEIYVDRATLPTIQQMTKIVSQKTSNKKLISWSRYPITDKSLLKKINAEFFKEQFELTESLKNIILSENIDNLIIHGNTLWSIDVVDIIKEVNLLGKNIPIELHFYDDGSAEYVRIYEFSKLPESEQKYKTSLSKNNIKFSIDGTDSFKNTIENIYGFSQLYPTTYHMLRADIFDTTLKINPLRELLSNNIKQMKWDYFKDFNYKQKDIFYSLTNFNPKEIQEDFNKNSNKNFIFIGSNSATATAEEQINIISEAKKENSSIITNSISDYDLFFKGHPSATFNEQIINAHDMIEINNKIPFEALIMTGILPDAVGGMGSSVFFSIPKEVKNKFVFYKSGTDIENNSLIQVMLKLNLINRDNIKLISDI
modifications: CDS (1)..(1209) /gene=“FAJ16-23ST” /product=“Beta-galactoside- alpha 2,3-sialyltransferase”

Columns and labels:
asialofetuin = assay: Sialic acid transfer to glycoprotein (asialofetuin), gel filtration and scintillation counting; format: biochemical; conditions: asialofetuin acceptor; CMP-14C-NeuAc 22.8 nmol (about 19,000 cpm); enzyme 10 mU; 25° C., 2 hours
From the text: Cell homogenates prepared from E. coli cells introduced with the third clone of ISH467-N2C0, the first clone of ISH224-N1C0 and the first clone of FAJ-N1C0 were each purified by ion exchange chromatography and hydroxyapatite chromatography to give an electrophoretically single band. The thus purified β-galactoside-α2,3-sialyltransferases were used in the following experiment in order to examine the presence or absence of sialyltransferase activity toward glycoproteins.
As a glycosyl acceptor substrate, asialofetuin was used. Asialofetuin (2 mg) was dissolved in 1 ml of 20 mM Bis-tris buffer (pH 6.0) and used as a glycosyl acceptor substrate solution. As a glycosyl donor substrate, CMP-^14C-NeuAc-containing CMP-NeuAc was used. The glycosyl acceptor substrate solution (40 μl), the glycosyl donor substrate (5 μl, 22.8 nmol (about 19,000 cpm)) and any of the enzyme solutions (5 μl, 10 mU each) were mixed and incubated at 25° C. for 2 hours to cause sialic acid transfer reaction. After completion of the reaction, the reaction solution was gel-filtered by being applied to a Sephadex G-50 Superfine (0.8×18.0 cm) equilibrated with 0.1 M sodium chloride. A glycoprotein-containing eluate fraction (2-4 ml fraction) from gel filtration was collected and measured for its radioactivity using a liquid scintillation counter to quantify sialic acid transferred to the glycosyl acceptor substrate.

[1] = Optimum temperature for enzyme activity; format: biochemical; conditions: 5° C. to 45° C. at 5° C. intervals, at the optimum pH of each enzyme
Method: Purified enzymes were prepared to examine the optimum pH and temperature for β-galactoside-α2,3-sialyltransferase produced by the strain JT-ISH-467 as well as recombinant β-galactoside-α2,3-sialyltransferases produced by the third clone of ISH467-N2C0, the first clone of ISH224-N1C0 and the first clone of FAJ-N1C0.
The enzyme activity was measured at an interval of 5° C. starting from 5° C. up to 45° C. and at pH 5.0 for β-galactoside-α2,3-sialyltransferase produced by the strain JT-ISH-467, in cacodylate buffer (pH 5.5) for the third clone of ISH467-N2C0, in cacodylate buffer (pH 5.0) for the first clone of ISH224-N1C0, and in cacodylate buffer (pH 5.5) for the first clone of FAJ-N1C0.
As a result, as shown, in FIGS. 4-1 and 4-2, the enzyme activity was maximum at 25° C. for β-galactoside-α2,3-sialyltransferase produced by the strain JT-ISH-467, at 25° C. for the third clone of ISH467-N2C0, at 30° C. for the first clone of ISH224-N1C0, and at 20° C. for the first clone of FAJ-N1C0. […] It should be noted that enzyme activity at each temperature was expressed as relative activity, assuming at that the enzyme activity at a temperature where it reached a maximum was set to 100.

Molecule	Radioactivity (cpm) (asialofetuin)	Temperature at which the enzyme activity was maximum (optimum temperature) [1] [°C]
B1	3301	30
B2	1729	25
B3	2865	20
